Laboratory results as given in paper PMC2132664 (The Journal of Cell Biology, 1998).

B1: DEL K560–GFP (aa 341–370 of the neck coiled coil deleted) (domain or fragment, human, UniProt P33176 1-560, looked up)
chain: MADLAECNIKVMCRFRPLNESEVNRGDKYIAKFQGEDTVVIASKPYAFDRVFQSSTSQEQVYNDCAKKIVKDVLEGYNGTIFAYGQTSSGKTHTMEGKLHDPEGMGIIPRIVQDIFNYIYSMDENLEFHIKVSYFEIYLDKIRDLLDVSKTNLSVHEDKNRVPYVKGCTERFVCSPDEVMDTIDEGKSNRHVAVTNMNEHSSRSHSIFLINVKQENTQTEQKLSGKLYLVDLAGSEKVSKTGAEGAVLDEAKNINKSLSALGNVISALAEGSTYVPYRDSKMTRILQDSLGGNCRTTIVICCSPSSYNESETKSTLLFGQRAKTIKNTVCVNVELTAEQWGETVPIDEQFDKEKANLEAFTVDKDITLTNDKPATAIGVIGNFTDAERRKCEEEIAKLYKQLDDKDEEINQQSQLVEKLKTQMLDQEELLASTRRDQDNMQAELNRLQAENDASKEEVKEVLQALEELAVNYDQKSQEVEDKTKEYELLSDELNQKSATLASIDAELQKLKEMTNHQKKRAAEMMASLLK
B2: STABLE COIL K560–GFP (aa 343–370 replaced by four repeats of EIEALKA) (domain or fragment, human)
chain: MADLAECNIKVMCRFRPLNESEVNRGDKYIAKFQGEDTVVIASKPYAFDRVFQSSTSQEQVYNDCAKKIVKDVLEGYNGTIFAYGQTSSGKTHTMEGKLHDPEGMGIIPRIVQDIFNYIYSMDENLEFHIKVSYFEIYLDKIRDLLDVSKTNLSVHEDKNRVPYVKGCTERFVCSPDEVMDTIDEGKSNRHVAVTNMNEHSSRSHSIFLINVKQENTQTEQKLSGKLYLVDLAGSEKVSKTGAEGAVLDEAKNINKSLSALGNVISALAEGSTYVPYRDSKMTRILQDSLGGNCRTTIVICCSPSSYNESETKSTLLFGQRAKTIKNTVCVNVELTAEQWKKEIEALKAEIEALKAEIEALKAEIEALKAGETVPIDEQFDKEKANLEAFTVDKDITLTNDKPATAIGVIGNFTDAERRKCEEEIAKLYKQLDDKDEEINQQSQLVEKLKTQMLDQEELLASTRRDQDNMQAELNRLQAENDASKEEVKEVLQALEELAVNYDQKSQEVEDKTKEYELLSDELNQKSATLASIDAELQKLKEMTNHQKKRAAEMMASLLK

Target: the molecule itself
Experiment: single-spot fluorescence intensity

| Protein | stoichiometry N |
| --- | --- |
| B1 | 2 |
| B2 | 2 |
